Target: T1, macrophage migration inhibitory factor (MIF) (human (endogenous in MCF-7)), P14174
T1 chain: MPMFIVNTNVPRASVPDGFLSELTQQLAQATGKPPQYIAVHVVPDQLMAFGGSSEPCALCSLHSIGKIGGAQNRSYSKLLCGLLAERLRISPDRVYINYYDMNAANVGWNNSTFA
Test: native MS; native top-down proteomics: whole cell lysates of MCF-7 and MCF-7-EGFR (EGFR-overexpressing) cells fractionated by native SEC, concentrated with molecular weight cutoff filters, direct ESI infusion FAIMS-MSn with HCD, Orbitrap detection; endogenous assemblies
Conditions: remark: other sources report otherwise

B1: macrophage migration inhibitory factor (MIF), P14174 1-115 (natural protein)
chain: MPMFIVNTNVPRASVPDGFLSELTQQLAQATGKPPQYIAVHVVPDQLMAFGGSSEPCALCSLHSIGKIGGAQNRSYSKLLCGLLAERLRISPDRVYINYYDMNAANVGWNNSTFA
modifications: here or on the partner: proteoforms released from the trimers: unmodified, nitrosylated at C80, acetylated at K77, truncated; phosphorylated subunits also reported (site not given); proteoforms released from the trimers: unmodified, nitrosylated at C80, acetylated at K77, truncated; phosphorylated subunits also reported (site not given)
In the case of B1, the stoichiometry N is reported as 3.

Reference: paper PMC10402242
